Source: patent US20050069887A1, “Dna synthesis promoters dna polymerase-associated factors and utilization thereof” (priority 2001, published 2005)
Read-outs that look alike come from different tables or passages of the source.

Assays:
KOD-plus DNA polymerase = molecular target: T1, KOD-plus DNA polymerase (Thermococcus kodakarensis, UniProt P77933, DEL407-766/DEL853-1389); type: biochemical, Thermococcus kodakaraensis KOD1; conditions: 2 mM potassium oxalate, FIG. 14
T1 construct: purchased Toyobo
Protocol: Oxalate ion and DMSO were investigated for their synergistic effectiveness for hot start enzyme in amplification of a target DNA which is difficult to amplify by usual PCR, using a KOD-plus DNA polymerase, i.e., hot start enzyme. Potassium oxalate was added to the PCR buffer supplied with KOD-plus (TOYOBO CO., LTD.) to attain a final concentration of 2 mM. Also used were 0.2 mM dNTPs and […] of a pair of primers of SEQ ID Nos:18 and 19, and 1.0 U KOD-plus DNA polymerase. 0.5 μL of cDNA obtained by reverse transcription of 500 ng of total RNA derived from human cell line K562 with ThermoScript (Invitrogen) was used as a template. This reaction mixture was subjected to PCR by using GeneAmp2400 (PE Applied Biosystems) to investigate the influence on the PCR results of varying the concentration of DMSO. The PCR conditions were as follows: 1 preliminary reaction of 94° C. for 2 minutes, and then 40 cycles of 94° C. for 15 seconds, 60° C. for 30 seconds and 68° C. for 9 minutes.

KOD DNA polymerase [1] = molecular target: T2, KOD DNA polymerase (Thermococcus kodakarensis, UniProt P77933, DEL407-766/DEL853-1389); experiment: PCR of 3.6 kb globin cluster DNA using KOD DNA polymerase with PCNA/RFC (Examples 3-12 to 3-14); type: biochemical, Thermococcus kodakaraensis KOD1
Protocol: The effect produced by the addition of KOD-PCNA protein on PCR amplification of a 3.6 kb DNA in a human […] cluster was investigated. The PCR buffer supplied with KOD-Plus (TOYOBO CO.,LTD), 0.2 mM dNTPs and 0.3 μM of a pair of primers of SEQ ID Nos:60 and 61 were used. 1 U KOD DNA polymerase was used as a heat-resistant DNA polymerase, and genomic DNA derived from human cell line K562 was used as a template. This reaction mixture was subjected to PCR using GeneAmp2400 (PE Applied Biosystems) to investigate the difference in the PCR results caused by the presence or absence of PCNA. The PCR conditions were as follows: 1 preliminary reaction of 94° C. for 2 minutes; and then 35 cycles of 94° C. for 20 seconds, 60° C. for 30 seconds and 68° C. for 4 minutes.
The effect produced by the addition of the KOD-RFC complex was investigated with the same target DNA and reaction solution as in Example 3-12. The amount of RFC effective for PCR was investigate by using 1 ng of genomic DNA derived from human cell line K562 as a template.
The effect produced by the addition of KOD-PCNA protein and KOD-RFC complex was investigated with the same target DNA and reaction solution as in Example 3-12. 1 ng of genomic DNA derived from human cell line K562 was used as a template and their optimal ratios were investigated.

KOD Dash DNA polymerase = experiment: PCR using mixed-type KOD Dash DNA polymerase with PCNA/RFC (Example 3-15); type: biochemical, Thermococcus kodakaraensis KOD1; conditions: 1 ng template, FIG. 34
Protocol: The effect produced by the combined use of KOD-PCNA protein and the KOD-RFC complex in PCR using a mixture of two kinds of DNA polymerases was investigated with the same target DNA and reaction solution as in Example 3-12
1 ng of genomic DNA derived from human cell line K562 was used as a template. KOD Dash DNA polymerase, which is a mixture of KOD DNA polymerase and KOD (exo-) DNA polymerase which has lost KOD 3′-5′ exonuclease activity, was used as the mixed-type DNA polymerase.

KOD DNA polymerase [2] = molecular target: T2, KOD DNA polymerase; experiment: DNA elongation by KOD DNA polymerase on primed M13 mp18 DNA (Examples 3-10, 3-11); type: biochemical, Thermococcus kodakaraensis KOD1; conditions: for elongation (size of synthesized DNA): 75° C.
Protocol: 150 fmol of KOD DNA polymerase was reacted with 1.5 pmol of DNA obtained by annealing an M13 P7 primer (SEQ ID NO:59) to M13 mp18 DNA (circular single-stranded DNA) to determine processivity. 450 fmol, 1.5 pmol, 4.5 pmol and 15 pmol samples of KOD-PCNA obtained in Example 3-6 were added to reaction buffer solutions [20 mM Tris-HCl (pH 7.5 at 75° C.), 10 mM KCl, 6 mM (NH4)2SO4, 2 mM MgCl2, 0.1% Triton X-100, 10 μg/ml BSA]. The mixtures were reacted at 75° C. for varying times: 30 seconds, 60 seconds and 120 seconds, to investigate their degrees of elongation. In the course of the elongation reaction DNA samples were withdrawn at the above reaction times and added to the same quantity of a stop solution (60 mM EDTA, […], 0.1% BPB, 30% glycerol). The obtained DNA samples were separated by 1% alkaline agarose electrophoresis and analyzed to determine the sizes of the synthesized DNA.
KOD DNA polymerase reactions were conducted in a similar manner to Example 3-10 either in the presence of KOD-PCNA or in the copresence of KOD-PCNA and KOD-RFC by using an circular single stranded DNA, which was annealed with a primer, as a substrate. […] This is presumably because almost all the KOD DNA polymerase molecules were available to react with PCNA in the presence of the RFC complex.

pMol 21 = conditions: PCR product fidelity, rpsL / pMol 21 method; cited from earlier work
[3] = PCNA added in 30 times the molar amount of DNA polymerase

C[S+](C)[O-] [DMSO, dimethylsulfoxide]
amplification of target DNA (KOD-plus DNA polymerase; 5% DMSO): sufficient amplification was observed | amplification of target DNA (KOD-plus DNA polymerase; in the presence of DMSO, cDNA template): an increase in amplification amount was observed

B1: RFC: replication factor C complex of KOD-mRFCS and KOD-RFCL derived from KOD1 (protein)
chain 1: MSEEVKEVKILEKPWVEKYRPQRLEDIVGQDHIVKRLKHYVKTGSMPHLLFAGPPGVGKTTAALALARELFGENWRHNFLELNASDERGINVIREKVKEFARTKPIGGASFKIIFLDEADALTQDAQQALRRTMEMFSNNVRFILSCNYSSKIIEPIQSRCAIFRFRPLRDEDIAKRIRYIAENEGLELTEEGLQAILYVAEGDLRRAINVLQAAAALDTKITDENVFLVASRARPEDVREMMTLALEGNFLKAREKLRDILLRQGLSGEDVLIQMHKEVFNLPIPEDKKVALADKIGEYNFRLVEGANEMIQLEALLAQFTIMGK
chain 2: MTEVPWVEKYRPRKLSEIVNQEKALEQVRAWVEAWLHGNPPKKKALLLAGPPGVGKTTTVYALANEYGFEVIELNASDERTYEKIERYVQAAYTMDILGKRRKLIFLDEADNIEPSGAREIAKLIDKARNPIIMSANHYWEVPREIRNKAQIVEYKRLTQRDIIKALVRILKREGLEVPKEVLYEIAKRANGDLRAAVNDLQTVVTGGVEDAVEVLAYRDTEKSVFQALAQLFATDNAKRAKLAVLGVDMMPNELLQWIDENVPYVYYRPEDIARAYEALSRADIYLGRAQRTGNYGLWKYATDMMTAGVAVAGIKKKGFVKIYPPKTIKLLTESKEERSLRDSVIKKIMSEMHMAKLEAIETLRYLRVIFENNPDLAAHFVVFLDLSEKEVEFITGDKEKAKTIWAKSMNIEKKLKKEGELEARAKEAERRVEAAEEEETMEAGEPEEELEEVEEEELTEEELEEAEEEIETVGKKEKPEKEKTKKGKQATLFDFLKK
amplification of the target DNA (KOD DNA polymerase [1]; 1.5 pmol further added to 10 fmol of PCNA, 1 ng template, FIG. 33): sufficient amplification was observed | amplification of the target DNA (KOD Dash DNA polymerase; further addition of RFC to PCNA): amplification of the target DNA was greatly clarified

B2: PCNA: proliferating cell nuclear antigen derived from Thermococcus kodakaraensis KOD1, SEQ ID NO: 2 (protein)
chain: MPFEVVFDGAKEFADLIATASNLIDEAAFKFTEEGISMRAMDPSRVVLIDLNLPESIFSKYEVEEPETIGINMDQFKKILKRGKAKDTLILRKGDENFLEITFEGTAKRTFRLPLIDVEELELELPELPFTAKVVLLGEVLKEGIKDASLVSDAIKFIAKENEFTMKAEGETNEVEIRLTLEDEGLLDLEVEEETKSAYGISYLSDMVKGIGKADEVILRFGNEMPLQMEYMIRDEGRLTFLLAPRVEE
modifications: Thermococcus kodakaraensis KOD1; KOD-PCNA
DNA elongation rate of KOD DNA polymerase (KOD DNA polymerase [2]; [3]): 120 bases per second | DNA elongation rate relative to the sample with no PCNA added (KOD DNA polymerase [2]; [3]): about 3 times | DNA elongation rate (KOD DNA polymerase [2]; only PCNA added, FIG. 30): an increase in the DNA elongation rate was observed | increase of DNA elongation rate compared to single use of KOD DNA polymerase (KOD DNA polymerase [2]; using KOD-PCNA): several fold | amplification of the target DNA (KOD DNA polymerase [1]; 10 fmol of PCNA alone, 1 ng template, FIG. 33): amplification of the target DNA was barely observed together with a smear | amplification of the target DNA (KOD DNA polymerase [1]; 30 fmol of PCNA, 1 ng template DNA, FIG. 31): amplification of the target DNA was observed | amplification of the target DNA (KOD DNA polymerase [1]; PCNA added, 3 ng template DNA, FIG. 31): amplification of the target DNA was more clearly observed | increase of PCR sensitivity (KOD DNA polymerase [1]; addition of PCNA): at least 3 fold | amplification of the target DNA (KOD Dash DNA polymerase; addition of PCNA): amplification of the target DNA was made somewhat clearer

B3: KOD DNA polymerase: Thermococcus kodakaraensis KOD1-derived thermostable α-type DNA polymerase, SEQ ID NO: 1 (protein)
chain: MILDTDYITEDGKPVIRIFKKENGEFKIEYDRTFEPYFYALLKDDSAIEEVKKITAERHGTVVTVKRVEKVQKKFLGRPVEVWKLYFTHPQDVPAIRDKIREHPAVIDIYEYDIPFAKRYLIDKGLVPMEGDEELKMLAFDIETLYHEGEEFAEGPILMISYADEEGARVITWKNVDLPYVDVVSTEREMIKRFLRVVKEKDPDVLITYNGDNFDFAYLKKRCEKLGINFALGRDGSEPKIQRMGDRFAVEVKGRIHFDLYPVIRRTINLPTYTLEAVYEAVFGQPKEKVYAEEITTAWETGENLERVARYSMEDAKVTYELGKEFLPMEAQLSRLIGQSLWDVSRSSTGNLVEWFLLRKAYERNELAPNKPDEKELARRRQSYEGGYVKEPERGLWENIVYLDFRSLYPSIIITHNVSPDTLNREGCKEYDVAPQVGHRFCKDFPGFIPSLLGDLLEERQKIKKKMKATIDPIERKLLDYRQRAIKILANSYYGYYGYARARWYCKECAESVTAWGREYITMTIKEIEEKYGFKVIYSDTDGFFATIPGADAETVKKKAMEFLKYINAKLPGALELEYEGFYKRGFFVTKKKYAVIDEEGKITTRGLEIVRRDWSEIAKETQARVLEALLKDGDVEKAVRIVKEVTEKLSKYEVPPEKLVIHEQITRDLKDYKATGPHVAVAKRLAARGVKIRPGTVISYIVLKGSGRIGDRAIPFDEFDPTKHKYDAEYYIENQVLPAVERILRAFGYRKEDLRYQKTRQVGLSAWLKPKGT
modifications: Thermococcus kodakaraensis KOD1; KOD DNA polymerase
processivity (KOD DNA polymerase [2]; no PCNA added): ≥ 5 kb | elongation (size of synthesized DNA) (KOD DNA polymerase [2]; no PCNA added, reaction time 30 seconds): 1.2 kb | elongation (size of synthesized DNA) (KOD DNA polymerase [2]; no PCNA added, reaction time 60 seconds): 2.5 kb | elongation (size of synthesized DNA) (KOD DNA polymerase [2]; no PCNA added, reaction time 120 seconds): 5 kb | elongation rate (KOD DNA polymerase [2]; no PCNA, 1.5 pmol substrate DNA relative to 150 fmol DNA polymerase): about 40 bases per second | mutation rate (pMol 21): ≤ 0.1%
